Here are results for two molecules from paper PMC3578099 (Journal of structural biology, 2013).

The target in assay [1] is T1, SHP-1 C453S catalytic domain (residues 243–530) (human, UniProt P29350 243-530, C453S). The experiment in a line: ITC.
For assay [2], the target named is T1, SHP-1 C453S catalytic domain (residues …). The experiment in a line: ITC. The source holds these as a separate data set. (In general: ITC needs no label: the signal is the heat of the interaction.)

Like-named read-outs stand apart in the source and are kept apart here. Square brackets hold non-standard residues; d marks the D form. Ends that are not written are not given here. pY = N[C@@H](Cc1ccc(OP(=O)(O)O)cc1)C(=O)O

T1 sequence (P29350 243-530 C453S): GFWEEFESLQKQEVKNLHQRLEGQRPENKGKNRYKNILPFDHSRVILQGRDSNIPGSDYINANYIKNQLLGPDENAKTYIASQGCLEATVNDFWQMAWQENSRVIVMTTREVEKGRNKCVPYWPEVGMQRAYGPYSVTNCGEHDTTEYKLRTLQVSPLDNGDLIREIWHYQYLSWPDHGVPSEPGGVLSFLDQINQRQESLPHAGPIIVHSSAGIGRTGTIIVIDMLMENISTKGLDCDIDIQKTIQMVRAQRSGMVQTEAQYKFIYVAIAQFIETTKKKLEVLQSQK

B1: JAK1 activation loop phosphopeptide E1029TDKEYpYTVKD (peptide)
peptide: ETDKEY[pY]TVKD
B1: in assay [1], the Kd – broadly, a measure of binding affinity in units of concentration – was determined as 5.6 ± 1.1 µM; the dH is -21.5 ± 3.5 kcal/mol; the stoichiometry N (in general, the number of molecules, sites or subunits per partner or assembly) is 0.9.

B2: JAK1 activation loop phosphopeptide E1029TDKEpYYTVKD (peptide)
peptide: ETDKE[pY]YTVKD
In assay [2], B2 displayed a dissociation constant (Kd) of 13.4 µM. For the same molecule, in assay [1], the Kd was 13.7 ± 1.4 µM, the dH is -28.7 ± 7.3 kcal/mol and the “stoichiometry N” value is 0.7.
